Laboratory results from article PMC12557600.

How the values were obtained:
Test in all cases: EMSA
Details in all cases: N16 of strand 1 = tetrahydrofuran (THF) abasic site analog; EMSA: 50 mM Tris pH 8.0, 1 mM EDTA, 0.2 mg/ml BSA, 50 mg/ml sucrose, 0.5 mg/ml bromophenol blue, 1 mM DTT; 2 nM DNA, at least 20 min; 10% 59:1 native gel …
[1] = molecular target: APE1 N174K N174K (Homo sapiens) (UniProt P27695)
APE1 WT (Homo sapiens) = APE1 WT (Homo sapiens) (UniProt P27695)
[2] = molecular target: APE1 N174D N174D (Homo sapiens) (UniProt P27695)
APE1 N174D N174D (Homo sapiens), sequence (P27695 whole entry N174D): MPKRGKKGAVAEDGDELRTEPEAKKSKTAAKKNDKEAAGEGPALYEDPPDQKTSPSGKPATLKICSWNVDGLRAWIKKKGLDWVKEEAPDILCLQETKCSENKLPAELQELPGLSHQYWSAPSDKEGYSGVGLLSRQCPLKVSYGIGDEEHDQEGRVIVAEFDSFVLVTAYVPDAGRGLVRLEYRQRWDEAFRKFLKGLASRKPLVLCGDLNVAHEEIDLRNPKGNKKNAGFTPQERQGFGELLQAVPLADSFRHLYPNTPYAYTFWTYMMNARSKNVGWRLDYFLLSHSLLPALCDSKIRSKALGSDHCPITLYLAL

[3] = molecular target: APE1 N174A N174A (Homo sapiens) (UniProt P27695)
APE1 N174A N174A (Homo sapiens), sequence (P27695 whole entry N174A): as the sequence (P27695 whole entry N174D) above, with D174A counted along it

APE1 WT (Homo sapiens), sequence (P27695 whole entry): as the sequence (P27695 whole entry N174D) above, with D174N counted along it
APE1 N174K N174K (Homo sapiens), sequence (P27695 whole entry N174K): as the sequence (P27695 whole entry N174D) above, with D174K counted along it

## CGTTCGCTGATGCGCNCGACGGATCCGCAT / ATGCGGATCCGTCGAGCGCATCAGCGAACG [30-bp THF AP-DNA]
[1]
  Kd: 17 nM
APE1 WT (Homo sapiens)
  Kd: 0.9 nM
[2]
  Kd: 13 nM
[3]
  Kd: 44 nM
